Results from the RNAGym collection of RNA variant scans (doi:10.1093/molbev/msab373).

B1: Azoarcus group I ribozyme (parent)
chain: GUGCCUUGCGCCGGGAAACCACGCAAGGGAUGGUGUCAAAUUCGGCGAAACCUAAGCGCCCGCCCGGGCGUAUGGCAACGCCGAGCCAAGCUUCGGCGCCUGCGCCGAUGAAGGUGUAGAGACUAGACGGCACCCACCUAAGGCAAACGCUAUGGUGAAGGCAUAGUCCAGGGAGUGGCGAAAGUCACACAAACCGG

Variants of: B1
Test: reverse-splicing fitness (ratio to wild type); higher = more active; in vitro selection; Mg2+ level not given
How it was run: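 An in vitro group I ribozyme library with randomized positions was T7-transcribed and gel-purified. In triplicate, 10 pmol RNA in EPPS pH 7.5 was reacted with 50 pmoles of a 30-nt RNA substrate for 1 h at 37 °C across several added MgCl2 levels (1–48 mM), then stopped with EDTA. Products were reverse transcribed from a substrate-complementary primer, PCR-amplified and sequenced (HiSeq 4000). Fitness is a variant's read proportion after selection over that before, normalised to wild type.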

Variant	reverse-splicing fitness
A111C A120C A145G C150A C169A U176C	0.0214
A111C A120C A145C C169G U176C	0.0167
A111C A120C A145C C169G U176A	0.0217
A111C A120C A145C C169G U176G	0.00634
A111C A120C A145G C150G C169U U176C	0.0128
A111C A120C A145G C150G C169U U176G	0.0071
A111C A120C A145G C150G C169U U176A	0.0114
A111C A120C A145G C150G U176C	0.0368
A111C A120C A145G C150G U176A	0.0158
A111C A120C A145G C150G U176G	0.0072
A111C A120C A145C C150A C169U U176A	0.0155
A111C A120C A145C C150A C169U U176C	0.0108
A111C A120C A145C C150A C169U U176G	0.00564
A111C A120C A145U C150U C169G	0.00917
A111C A120C A145U C150U C169U	0.125
A111C A120C A145U C150U C169A	0.0112
A111C A120C A145U C150U C169G U176A	0.0128
A111C A120C A145U C150U C169G U176G	0.00667
A111C A120C A145U C150U C169G U176C	0.0132
A111C A120C A145G C150A C169U U176G	0.00728
A111C A120C A145G C150A C169U U176A	0.0207

Variant	reverse-splicing fitness
A111C A120C A145G C150A C169U U176C	0.024
A111C A120C A145G C150G C169A	0.009
A111C A120C A145G C150G C169G	0.00738
A111C A120C A145G C150G C169U	0.0264
A111C A120C A145G C150G C169G U176A	0.0102
A111C A120C A145G C150G C169G U176G	0.00553
A111C A120C A145G C150G C169G U176C	0.0119
A111C A120C A145U C150A C169G U176G	0.00651
A111C A120C A145U C150A C169G U176C	0.0146
A111C A120C A145U C150A C169G U176A	0.0127
A111C A120C A145C C150U C169U U176G	0.00555
A111C A120C A145C C150U C169U U176C	0.0237
A111C A120C A145C C150U C169U U176A	0.0206
A111C A120C A145U C150G C169G	0.00671
A111C A120C A145U C150G C169U	0.0234
A111C A120C A145U C150G C169A	0.00797
A111C A120C A145C C150U C169G	0.00649
A111C A120C A145C C150U C169A	0.00837
A111C A120C A145C C150U C169U	0.048
A111C A120C A145G C169A U176G	0.0054
A111C A120C A145G C169A U176A	0.0222

Variant	reverse-splicing fitness
A111C A120C A145G C169A U176C	0.0284
A111C A120C A145C C150G C169G U176G	0.00522
A111C A120C A145C C150G C169G U176C	0.00939
A111C A120C A145C C150G C169G U176A	0.00861
A111C A120C A145G C150A C169G U176C	0.0253
A111C A120C A145G C150A C169G U176A	0.0148
A111C A120C A145G C150A C169G U176G	0.00696
A111C A120C A145U C150A C169A U176A	0.0108
A111C A120C A145U C150A C169A U176C	0.0085
A111C A120C A145U C150A C169A U176G	0.0061
A111C A120C A145G	0.614
A111C A120C A145U	0.589
A111C A120C A145C C150U C169A U176A	0.0107
A111C A120C A145C C150U C169A U176C	0.005
A111C A120C A145C C150U C169A U176G	0.00703
A111C A120C A145U C150G C169G U176A	0.00752
A111C A120C A145U C150G C169G U176C	0.00645
A111C A120C A145U C150G C169G U176G	0.00591
A111C A120C A145U C150G	0.0621
A111C A120C A145U C150A	0.0648
A111C A120C A145U C150U	0.415

Variant	reverse-splicing fitness
A111C A120C A145C C150U U176G	0.0168
A111C A120C A145C C150U U176C	0.0914
A111C A120C A145C C150U U176A	0.069
A111C A120C A145C C169A U176G	0.00493
A111C A120C A145C C169A U176A	0.0126
A111C A120C A145C C169A U176C	0.00756
A111C A120C A145C C150G C169G	0.0064
A111C A120C A145C C150G C169U	0.0267
A111C A120C A145C C150G C169A	0.00813
A111C A120C A145C C150G C169A U176A	0.0076
A111C A120C A145C C150G C169A U176C	0.00793
A111C A120C A145C C150G C169A U176G	0.00595
A111C A120C A145G C150U U176C	0.18
A111C A120C A145G C150U U176A	0.159
A111C A120C A145G C150U U176G	0.0297
A111C A120C A145G C150U C169U U176C	0.0438
A111C A120C A145G C150U C169U U176G	0.00486
A111C A120C A145G C150U C169U U176A	0.0283
A111C A120C A145C U176A	0.172
A111C A120C A145C U176G	0.0513
A111C A120C A145C U176C	0.197
